In publication PMC3514788 (The Journal of Cell Biology, 2012):
Each block holds one molecule with its values, some of them ahead of it.

B1: Drg1 (enzyme)
chain: MAPKSSSSGSKKKSSASSNSADAKASKFKLPAEFITRPHPSKDHGKETCTAYIHPNVLSSLEINPGSFCTVGKIGENGILVIARAGDEEVHPVNVITLSTTIRSVGNLILGDRLELKKAQVQPPYATKVTVGSLQGYNILECMEEKVIQKLLDDSGVIMPGMIFQNLKTKAGDESIDVVITDASDDSLPDVSQLDLNMDDMYGGLDNLFYLSPPFIFRKGSTHITFSKETQANRKYNLPEPLSYAAVGGLDKEIESLKSAIEIPLHQPTLFSSFGVSPPRGILLHGPPGTGKTMLLRVVANTSNAHVLTINGPSIVSKYLGETEAALRDIFNEARKYQPSIIFIDEIDSIAPNRANDDSGEVESRVVATLLTLMDGMGAAGKVVVIAATNRPNSVDPALRRPGRFDQEVEIGIPDVDARFDILTKQFSRMSSDRHVLDSEAIKYIASKTHGYVGADLTALCRESVMKTIQRGLGTDANIDKFSLKVTLKDVESAMVDIRPSAMREIFLEMPKVYWSDIGGQEELKTKMKEMIQLPLEASETFARLGISAPKGVLLYGPPGCSKTLTAKALATESGINFLAVKGPEIFNKYVGESERAIREIFRKARSAAPSIIFFDEIDALSPDRDGSSTSAANHVLTSLLNEIDGVEELKGVVIVAATNRPDEIDAALLRPGRLDRHIYVGPPDVNARLEILKKCTKKFNTEESGVDLHELADRTEGYSGAEVVLLCQEAGLAAIMEDLDVAKVELRHFEKAFKGIARGITPEMLSYYEEFALRSGSSS

Assays:
[1] = target: GST-Rlp24C (S. cerevisiae) (UniProt Q07915); experiment: SPR
[2] = target: the molecule itself
Drg1 = target: B1; experiment: pull-down

Chain of GST-Rlp24C (S. cerevisiae) (Q07915 147-199): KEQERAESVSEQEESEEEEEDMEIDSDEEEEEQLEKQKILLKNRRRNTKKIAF

- fold RU against the wild-type and EQ2 proteins [1]: 4 fold
- kon2 (two-state reaction) [1]: 0.011 s⁻¹
Molecule: Drg1EQ1 (from UniProt P32794 1-780) (enzyme)

Molecule: B1
- stoichiometry N [2]: 6

- binding result (Drg1): binds
B2: GST-Nup116 fragment from the N terminus to residue 172 (domain or fragment)
chain: MFGVSRGAFPSATTQPFGSTGSTFGGQQQQQQPVANTSAFGLSQQTNTTQAPAFGNFGNQTSNSPFGMSGSTTANGTPFGQSQLTNNNASGSIFGGMGNNTALSAGSASVVPNSTAGTSIKPFTTFEEKDPTTGVINVFQSITCMPEYRNFSFEELRFQDYQAGRKFGTSQN
